For eleven molecules, Kd and AUC results are on record in US20210253724A1.

In assay [1] the target is hu N(A2-B2)A-avi-His B (human). Nature of the assay: SPR (Biacore T200), CEA construct immobilised, Fab as analyte, 1:1 Langmuir fit. For orientation: Surface plasmon resonance follows binding to a sensor surface in real time, without labels.
Assay [2] addresses human CEACAM5 (CEA) on cells (human) (UniProt P06731). Nature of the assay: flow cytometry on MKN45 cells. More on the design: unit not given beside the values. In general terms: A flow cytometer gives signals particle by particle.

Chain of hu N(A2-B2)A-avi-His B (human) (P06731 whole entry): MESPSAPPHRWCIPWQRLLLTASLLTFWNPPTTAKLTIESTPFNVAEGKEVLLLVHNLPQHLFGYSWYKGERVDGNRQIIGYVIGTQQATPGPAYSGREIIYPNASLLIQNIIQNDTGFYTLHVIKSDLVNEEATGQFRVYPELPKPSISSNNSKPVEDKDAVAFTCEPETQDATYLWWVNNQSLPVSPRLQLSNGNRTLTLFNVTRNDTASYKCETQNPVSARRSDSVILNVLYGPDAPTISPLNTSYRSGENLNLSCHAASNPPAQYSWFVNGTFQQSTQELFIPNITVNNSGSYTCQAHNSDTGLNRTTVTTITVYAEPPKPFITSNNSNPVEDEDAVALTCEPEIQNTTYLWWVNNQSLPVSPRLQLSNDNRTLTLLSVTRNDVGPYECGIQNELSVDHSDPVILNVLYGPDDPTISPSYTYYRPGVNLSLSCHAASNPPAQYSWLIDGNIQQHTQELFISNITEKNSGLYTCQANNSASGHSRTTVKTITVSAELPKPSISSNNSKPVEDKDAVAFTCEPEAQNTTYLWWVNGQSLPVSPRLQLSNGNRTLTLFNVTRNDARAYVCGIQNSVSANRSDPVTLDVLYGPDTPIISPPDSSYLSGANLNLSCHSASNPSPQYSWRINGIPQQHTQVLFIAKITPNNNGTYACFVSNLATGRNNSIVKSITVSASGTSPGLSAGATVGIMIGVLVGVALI
Chain of human CEACAM5 (CEA) on cells (human) (P06731 35-685 E398K limits assumed): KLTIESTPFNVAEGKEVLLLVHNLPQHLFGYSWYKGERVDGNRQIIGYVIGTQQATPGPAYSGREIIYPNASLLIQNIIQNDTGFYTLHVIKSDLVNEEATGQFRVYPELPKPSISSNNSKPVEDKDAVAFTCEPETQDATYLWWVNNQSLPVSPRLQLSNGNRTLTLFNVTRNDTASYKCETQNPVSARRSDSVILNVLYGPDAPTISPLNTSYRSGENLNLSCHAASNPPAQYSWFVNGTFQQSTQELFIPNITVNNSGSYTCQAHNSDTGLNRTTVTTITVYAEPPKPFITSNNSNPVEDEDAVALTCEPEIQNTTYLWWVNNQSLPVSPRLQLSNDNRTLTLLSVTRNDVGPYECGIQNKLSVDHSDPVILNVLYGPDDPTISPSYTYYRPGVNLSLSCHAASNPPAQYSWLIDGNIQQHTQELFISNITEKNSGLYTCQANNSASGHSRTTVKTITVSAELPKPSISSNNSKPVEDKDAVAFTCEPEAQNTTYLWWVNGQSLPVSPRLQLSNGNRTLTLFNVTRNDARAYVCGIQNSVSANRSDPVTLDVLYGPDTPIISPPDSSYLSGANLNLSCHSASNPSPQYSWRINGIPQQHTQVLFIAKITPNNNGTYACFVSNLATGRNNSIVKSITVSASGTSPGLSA

B1: P1AE4135 Fab derived from P1AE2164 (Fab, V domains shown)
VH: EVQLLESGGGLVQPGGSLRLSCAASGFTFTDYYMNWVRQAPGKGLEWLGFIGNKANGYTTEYSASVKGRFTISRDKSKNTLYLQMNSLRAEDTATYYCTRDRGLRFYFDYWGQGTTVTVSS
VL: QTVLTQSPATLSLSPGERATLSCRASSSVTYIHWYQQKPGSSPKSWIYATSNLASGIPARFSGSGSGTDYTLTISSLEPEDFAVYYCQHWSSKPPTFGQGTKLEIK
B1 showed a Kd in assay [1] of 1.7 nM.

B2: P1AE4139 Fab derived from P1AE2176 (Fab, V domains shown)
VH: EVQLLESGGGLVQPGGSLRLSCAASGFTFTDYYMNWVRQAPGKGLEWVGFIGNKANGYTTEYSASVKGRFTISRDNSKNTLYLQMNSLRAEDTAVYYCTRDRGLRFYFDYWGQGTTVTVSS
VL: EIVLTQSPATLSLSPGERATLSCRASSSVTYIHWYQQKPGSSPKSWIYATSNLASGIPARFSGSGSGTDFTLTISSLEPEDFAVYYCQHWSSKPPTFGQGTKLEIK
Take B2: the Kd in assay [1] turned out to be 7.58 nM.

B3: P1AE4136 Fab derived from P1AE2165 (Fab, V domains shown)
VH: EVQLLESGGGLVQPGGSLRLSCAASGFTFTDYYMNWVRQAPGKGLEWLGFIGNKANGYTTEYSASVKGRFTISRDKSKNTLYLQMNSLRAEDTATYYCTRDRGLRFYFDYWGQGTTVTVSS
VL: QTVLTQSPATLSLSPGERATLSCRASSSVTYIHWYQQKPGQAPRLLIYATSNLASGIPARFSGSGSGTDFTLTISSLEPEDFAVYYCQHWSSKPPTFGQGTKLEIK
The molecule B3 registered a Kd in assay [1] of 1.25 nM.

B4: P1AE4142 Fab derived from P1AE2181 (Fab, V domains shown)
VH: EVQLLESGGGLVQPGGSLRLSCAASGFTFTDYYMNWVRQAPGKGLEWVGFIGNKANGYTTEYSASVKGRFTISRDKSKNTLYLQMNSLRAEDTAVYYCARDRGLRFYFDYWGQGTTVTVSS
VL: EIVLTQSPATLSLSPGERATLSCRASSSVTYIHWYQQKPGSSPKSWIYATSNLASGIPARFSGSGSGTDFTLTISSLEPEDFAVYYCQHWSSKPPTFGQGTKLEIK
In assay [1], B4 gave a Kd of 2.64 nM.

B5: P1AE4138 Fab derived from P1AE2167 (Fab, V domains shown)
VH: EVQLLESGGGLVQPGGSLRLSCAASGFTFTDYYMNWVRQAPGKGLEWLGFIGNKANGYTTEYSASVKGRFTISRDKSKNTLYLQMNSLRAEDTATYYCTRDRGLRFYFDYWGQGTTVTVSS
VL: EIVLTQSPATLSLSPGERATLSCRASSSVTYIHWYQQKPGQAPRSWIYATSNLASGIPARFSGSGSGTDFTLTISSLEPEDFAVYYCQHWSSKPPTFGQGTKLEIK
As for B5, the dissociation constant Kd in assay [1] came out at 1.47 nM.

B6: P1AE4137 Fab derived from P1AE2166 (Fab, V domains shown)
VH: EVQLLESGGGLVQPGGSLRLSCAASGFTFTDYYMNWVRQAPGKGLEWLGFIGNKANGYTTEYSASVKGRFTISRDKSKNTLYLQMNSLRAEDTATYYCTRDRGLRFYFDYWGQGTTVTVSS
VL: EIVLTQSPATLSLSPGERATLSCRASSSVTYIHWYQQKPGSSPKSWIYATSNLASGIPARFSGSGSGTDFTLTISSLEPEDFAVYYCQHWSSKPPTFGQGTKLEIK
B6 yielded a Kd in assay [1] of 11.3 nM.

B7: P1AE4140 Fab derived from P1AE2177 (Fab, V domains shown)
VH: EVQLLESGGGLVQPGGSLRLSCAASGFTFTDYYMNWVRQAPGKGLEWVGFIGNKANGYTTEYSASVKGRFTISRDNSKNTLYLQMNSLRAEDTAVYYCTRDRGLRFYFDYWGQGTTVTVSS
VL: EIVLTQSPATLSLSPGERATLSCRASSSVTYIHWYQQKPGQAPRSWIYATSNLASGIPARFSGSGSGTDFTLTISSLEPEDFAVYYCQHWSSKPPTFGQGTKLEIK
In assay [1], B7 showed a Kd of 7.62 nM.

B8: P1AE4141 Fab derived from P1AE2179 (Fab, V domains shown)
VH: EVQLLESGGGLVQPGGSLRLSCAASGFTFTDYYMNWVRQAPGKGLEWVGFIGNKANGYTTEYSASVKGRFTISRDKSKNTLYLQMNSLRAEDTAVYYCARDRGLRFYFDYWGQGTTVTVSS
VL: QTVLTQSPATLSLSPGERATLSCRASSSVTYIHWYQQKPGSSPKSWIYATSNLASGIPARFSGSGSGTDYTLTISSLEPEDFAVYYCQHWSSKPPTFGQGTKLEIK
The molecule B8 had a Kd in assay [1] of 1.83 nM.

B9: P1AE4143 Fab derived from P1AE2182 (Fab, V domains shown)
VH: EVQLLESGGGLVQPGGSLRLSCAASGFTFTDYYMNWVRQAPGKGLEWVGFIGNKANGYTTEYSASVKGRFTISRDKSKNTLYLQMNSLRAEDTAVYYCARDRGLRFYFDYWGQGTTVTVSS
VL: EIVLTQSPATLSLSPGERATLSCRASSSVTYIHWYQQKPGQAPRSWIYATSNLASGIPARFSGSGSGTDFTLTISSLEPEDFAVYYCQHWSSKPPTFGQGTKLEIK
Take B9: the equilibrium dissociation constant (Kd) in assay [1] is 2.92 nM.

B10: P1AE3108 (antibody, IgG1, V domains shown)
VH: QVQLVQSGAEVKKPGSSVKVSCKASGFNIKDSYMHWVRQAPGQGLEWMGWIDPENGDTEYAPKFQGRVTITTDESTSTAYMELSSLRSEDTAVYYCNEGTPTGPYYFDYWGQGTLVTVSS
VL: EIQMTQSPSSLSASVGDRVTITCRASQSISSYMHWYQQKPGKAPKLLIYSTSNLASGVPSRFSGSGSGTDFTLTISSLQPEDFATYYCQQRSSYPLTFGGGTKLEIK
In the case of B10, in assay [2], the AUC turned out to be 2090.

B11: P1AE0289 CEA (A5B7) Fab (parental murine antibody) (Fab, V domains shown)
VH: EVKLVESGGGLVQPGGSLRLSCATSGFTFTDYYMNWVRQPPGKALEWLGFIGNKANGYTTEYSASVKGRFTISRDKSQSILYLQMNTLRAEDSATYYCTRDRGLRFYFDYWGQGTTLTVSS
VL: QTVLSQSPAILSASPGEKVTMTCRASSSVTYIHWYQQKPGSSPKSWIYATSNLASGVPARFSGSGSGTSYSLTISRVEAEDAATYYCQHWSSKPPTFGGGTKLEIK
In assay [1], B11 registered a Kd of 0.559 nM.

As a reminder, the Kd is the concentration at which binding is half-saturated.
